Substitutions are numbered along the chain they refer to. Names may count otherwise.
T1: Biotin-FcγRIIB (human FcγRIIB, Sino Biological) (human, UniProt P31994 43-217, limits assumed, biotin-labeled)
T1 construct: Used at 1 µg/ml with Streptavidin-APC for flow cytometry and sorting; also called CD32b
T1 sequence (looked up): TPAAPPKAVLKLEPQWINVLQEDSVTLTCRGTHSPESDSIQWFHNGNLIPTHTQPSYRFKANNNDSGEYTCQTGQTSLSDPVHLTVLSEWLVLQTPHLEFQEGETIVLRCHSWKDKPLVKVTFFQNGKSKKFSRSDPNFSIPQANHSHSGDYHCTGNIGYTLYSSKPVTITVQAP

B1: human IgG2 anti-mouse CD40 surface displayed antibody, H268D (antibody, name in EU numbering)
light chain (with the P2A rest): DTVLTQSPALAVSPGERVTISCRASDSVSTLMHWYQQKPGQQPKLLIYLASHLESGVPARFSGSGSGTDFTLTIDPVEADDTATYYCQQSWNDPWTFGGGTKLELKRTVAAPSVFIFPPSDEQLKSGTASVVCLLNNFYPREAKVQWKVDNALQSGNSQESVTEQDSKDSTYSLSSTLTLSKADYEKHKVYACEVTHQGLSSPVTKSFNRGECGSGATNFSLLKQAGDVEENPG
heavy chain: EVQLVESDGGLVQPGRSLKLPCAASGFTFSDYYMAWVRQAPTKGLEWVASISYDGSSTYYRDSVKGRFTISRDNAKSTLYLQMDSLRSEDTATYYCGRHSSYFDYWGQGVMVTVSSASTKGPSVFPLAPCSRSTSESTAALGCLVKDYFPEPVTVSWNSGALTSGVHTFPAVLQSSGLYSLSSVVTVPSSNFGTQTYTCNVDHKPSNTKVDKTVERKCCVECPPCPAPPVAGPSVFLFPPKPKDTLMISRTPEVTCVVVDVSDEDPEVQFNWYVDGVEVHNAKTKPREEQFNSTFRVVSVLTVVHQDWLNGKEYKCKVSNKGLPAPIEKTISKTKGQPREPQVYTLPPSREEMTKNQVSLTCLVKGFYPSDIAVEWESNGQPENNYKTTPPMLDSDGSFFLYSKLTVDKSRWQQGNVFSCSVMHEALHNHYTQKSLSLSPGKLEPPPSTVSNMATVAVLVVLGAAIVTGAVVAFVMKMRRRNTGGKGGDYALAPGSQTSDLSLPDCKVMVHDPHSLA
notes: m1 with this Fc mutation (Eu numbering); copies: 2 + 2
B2: human IgG2 anti-mouse CD40 surface displayed antibody, S267A/P271G (antibody, name in EU numbering)
light chain (with the P2A rest): B1 light chain (with the P2A rest)
heavy chain: B1 heavy chain with S262A, D263H, P266G
notes: m1 with these Fc mutations (Eu numbering); copies: 2 + 2
B3: human IgG2 anti-mouse CD40 surface displayed antibody, S267A (antibody, name in EU numbering)
light chain (with the P2A rest): B1 light chain (with the P2A rest)
heavy chain: B1 heavy chain with S262A, D263H
notes: as for B1
B4: human IgG2 anti-mouse CD40 surface displayed antibody, H268K (antibody, name in EU numbering)
light chain (with the P2A rest): B1 light chain (with the P2A rest)
heavy chain: B1 heavy chain with D263K
notes: as for B1
B5: human IgG2 anti-mouse CD40 surface displayed antibody, S267A/P271C (antibody, name in EU numbering)
light chain (with the P2A rest): B1 light chain (with the P2A rest)
heavy chain: B1 heavy chain with S262A, D263H, P266C
notes: as for B2
B6: human IgG2 anti-mouse CD40 surface displayed antibody, P271C (antibody, name in EU numbering)
light chain (with the P2A rest): B1 light chain (with the P2A rest)
heavy chain: B1 heavy chain with D263H, P266C
notes: as for B1
B7: human IgG2 anti-mouse CD40 surface displayed antibody, S267E/D270H (antibody, name in EU numbering)
light chain (with the P2A rest): B1 light chain (with the P2A rest)
heavy chain: B1 heavy chain with S262E, D263H, D265H
notes: as for B2
B8: human IgG2 anti-mouse CD40 surface displayed antibody, S267D (antibody, name in EU numbering)
light chain (with the P2A rest): B1 light chain (with the P2A rest)
heavy chain: B1 heavy chain with S262D, D263H
notes: as for B1
B9: human IgG2 anti-mouse CD40 surface displayed antibody, H268E (antibody, name in EU numbering)
light chain (with the P2A rest): B1 light chain (with the P2A rest)
heavy chain: B1 heavy chain with D263E
notes: as for B1
B10: human IgG2 anti-mouse CD40 surface displayed antibody, S267E/P271V (antibody, name in EU numbering)
light chain (with the P2A rest): B1 light chain (with the P2A rest)
heavy chain: B1 heavy chain with S262E, D263H, P266V
notes: as for B2
B11: human IgG2 anti-mouse CD40 surface displayed antibody, S267E/P271C (antibody, name in EU numbering)
light chain (with the P2A rest): B1 light chain (with the P2A rest)
heavy chain: B1 heavy chain with S262E, D263H, P266C
notes: as for B2
B12: human IgG2 anti-mouse CD40 surface displayed antibody, P271G/P331C (antibody, name in EU numbering)
light chain (with the P2A rest): B1 light chain (with the P2A rest)
heavy chain: B1 heavy chain with D263H, P266G, P326C
notes: as for B2
B13: human IgG2 anti-mouse CD40 surface displayed antibody, P271G/S298K (antibody, name in EU numbering)
light chain (with the P2A rest): B1 light chain (with the P2A rest)
heavy chain: B1 heavy chain with D263H, P266G, S293K
notes: as for B2
B14: human IgG2 anti-mouse CD40 surface displayed antibody, P271G/S298G (antibody, name in EU numbering)
light chain (with the P2A rest): B1 light chain (with the P2A rest)
heavy chain: B1 heavy chain with D263H, P266G, S293G
notes: as for B2
B15: human IgG2 anti-mouse CD40 surface displayed antibody, P271G/T299S (antibody, name in EU numbering)
light chain (with the P2A rest): B1 light chain (with the P2A rest)
heavy chain: B1 heavy chain with D263H, P266G, T294S
notes: as for B2
B16: human IgG2 anti-mouse CD40 surface displayed antibody, S298L (antibody, name in EU numbering)
light chain (with the P2A rest): B1 light chain (with the P2A rest)
heavy chain: B1 heavy chain with D263H, S293L
notes: as for B1
B17: human IgG2 anti-mouse CD40 surface displayed antibody, P271G/S298L (antibody, name in EU numbering)
light chain (with the P2A rest): B1 light chain (with the P2A rest)
heavy chain: B1 heavy chain with D263H, P266G, S293L
notes: as for B2
B18: human IgG2 anti-mouse CD40 surface displayed antibody, P271G/S298N (antibody, name in EU numbering)
light chain (with the P2A rest): B1 light chain (with the P2A rest)
heavy chain: B1 heavy chain with D263H, P266G, S293N
notes: as for B2
B19: human IgG2 anti-mouse CD40 surface displayed antibody, P271G/T299W (antibody, name in EU numbering)
light chain (with the P2A rest): B1 light chain (with the P2A rest)
heavy chain: B1 heavy chain with D263H, P266G, T294W
notes: as for B2
B20: human IgG2 anti-mouse CD40 surface displayed antibody, S267E (antibody, name in EU numbering)
light chain (with the P2A rest): B1 light chain (with the P2A rest)
heavy chain: B1 heavy chain with S262E, D263H
notes: as for B1
B21: human IgG2 anti-mouse CD40 surface displayed antibody, P271Q (antibody, name in EU numbering)
light chain (with the P2A rest): B1 light chain (with the P2A rest)
heavy chain: B1 heavy chain with D263H, P266Q
notes: as for B1
B22: human IgG2 anti-mouse CD40 surface displayed antibody, P271G/S298R (antibody, name in EU numbering)
light chain (with the P2A rest): B1 light chain (with the P2A rest)
heavy chain: B1 heavy chain with D263H, P266G, S293R
notes: as for B2
B23: human IgG2 anti-mouse CD40 surface displayed antibody, S267V/S298L (antibody, name in EU numbering)
light chain (with the P2A rest): B1 light chain (with the P2A rest)
heavy chain: B1 heavy chain with S262V, D263H, S293L
notes: as for B2
B24: human IgG2 anti-mouse CD40 surface displayed antibody, S267E/S298R (antibody, name in EU numbering)
light chain (with the P2A rest): B1 light chain (with the P2A rest)
heavy chain: B1 heavy chain with S262E, D263H, S293R
notes: as for B2
B25: human IgG2 anti-mouse CD40 surface displayed antibody, P271G/S298E (antibody, name in EU numbering)
light chain (with the P2A rest): B1 light chain (with the P2A rest)
heavy chain: B1 heavy chain with D263H, P266G, S293E
notes: as for B2
B26: human IgG2 anti-mouse CD40 surface displayed antibody, P271G/T299M (antibody, name in EU numbering)
light chain (with the P2A rest): B1 light chain (with the P2A rest)
heavy chain: B1 heavy chain with D263H, P266G, T294M
notes: as for B2
B27: human IgG2 anti-mouse CD40 surface displayed antibody, P271G/S298D (antibody, name in EU numbering)
light chain (with the P2A rest): B1 light chain (with the P2A rest)
heavy chain: B1 heavy chain with D263H, P266G, S293D
notes: as for B2
B28: human IgG2 anti-mouse CD40 surface displayed antibody, P271G/T299A (antibody, name in EU numbering)
light chain (with the P2A rest): B1 light chain (with the P2A rest)
heavy chain: B1 heavy chain with D263H, P266G, T294A
notes: as for B2
B29: human IgG2 anti-mouse CD40 surface displayed antibody, S267R (antibody, name in EU numbering)
light chain (with the P2A rest): B1 light chain (with the P2A rest)
heavy chain: B1 heavy chain with S262R, D263H
notes: as for B1
B30: human IgG2 anti-mouse CD40 surface displayed antibody, P271G/P331T (antibody, name in EU numbering)
light chain (with the P2A rest): B1 light chain (with the P2A rest)
heavy chain: B1 heavy chain with D263H, P266G, P326T
notes: as for B2

Target: T1, Biotin-FcγRIIB (human FcγRIIB, Sino …)
Experiment: NGS after FACS sort of 3T3-displayed Library2 for biotin-FcγRIIB binding

| Enrichment factor (percentage after sorting/percentage before sorting) | Increased factor (enrichment factor/wild-type enrichment factor) | Binder |
| --- | --- | --- |
| 1.54 | 2.68 | B1 |
| 5.27 | 9.19 | B2 |
| 3.17 | 5.52 | B3 |
| 1.32 | 2.31 | B4 |
| 37.4 | 65.1 | B5 |
| 17.1 | 29.9 | B6 |
| 42.7 | 74.3 | B7 |
| 2.11 | 3.67 | B8 |
| 1.69 | 2.94 | B9 |
| 22.1 | 38.4 | B10 |
| 1000 | 1740 | B11 |

Target: T1, Biotin-FcγRIIB (human FcγRIIB, Sino …)
Experiment: NGS after FACS sort of 3T3-displayed LibraryMix for biotin-FcγRIIB binding

| Enrichment factor (percentage after sorting/percentage before sorting) | Increased factor (enrichment factor/wild-type enrichment factor) | Binder |
| --- | --- | --- |
| 140 | 187 | B12 |
| 10.2 | 13.6 | B13 |
| 9.73 | 13 | B14 |
| 12 | 16 | B15 |
| 2.18 | 2.91 | B16 |
| 188 | 252 | B17 |
| 18 | 24 | B18 |
| 9.23 | 12.3 | B19 |
| 217 | 290 | B20 |
| 1.65 | 2.21 | B21 |
| 16 | 21.4 | B22 |
| 2.09 | 2.8 | B23 |
| 32.8 | 43.8 | B24 |
| 298 | 398 | B25 |
| 4.74 | 6.33 | B26 |
| 6.78 | 9.06 | B27 |
| 6.28 | 8.39 | B28 |
| 1.52 | 2.03 | B29 |
| 32.3 | 43.2 | B30 |
